Measurements from patent US20250277030A1, “ANTI-NAPI2B ANTIBODIES AND METHODS OF USE” (Zymeworks BC Inc., priority 2022, published 2025).

Experiments:
[1] = molecular target: human sodium-dependent phosphate transporter 2B (NaPi2b) (human) (UniProt O95436); test: flow cytometry competition on HEK293-6e cells expressing human NaPi2b; row antibody unlabeled at 100 µg/mL (the reference of the calculation); competitor: AF647-labeled v18993 (lifastuzumab) at 1 µg/mL
[2] = molecular target: human sodium-dependent phosphate transporter 2B (NaPi2b) (human) (UniProt O95436); test: flow cytometry competition on HEK293-6e cells expressing human NaPi2b; row antibody unlabeled at 100 µg/mL (the reference of the calculation); competitor: AF647-labeled v23855 at 1 µg/mL
[3] = molecular target: human sodium-dependent phosphate transporter 2B (NaPi2b) (human) (UniProt O95436); test: flow cytometry competition on HEK293-6e cells expressing human NaPi2b; row antibody unlabeled at 100 µg/mL (the reference of the calculation); competitor: AF647-labeled v18992 (MX35) at 1 µg/mL

Measured: % inhibition vs. irrelevant mAb

Sequence of human sodium-dependent phosphate transporter 2B (NaPi2b) (human) (O95436 whole entry): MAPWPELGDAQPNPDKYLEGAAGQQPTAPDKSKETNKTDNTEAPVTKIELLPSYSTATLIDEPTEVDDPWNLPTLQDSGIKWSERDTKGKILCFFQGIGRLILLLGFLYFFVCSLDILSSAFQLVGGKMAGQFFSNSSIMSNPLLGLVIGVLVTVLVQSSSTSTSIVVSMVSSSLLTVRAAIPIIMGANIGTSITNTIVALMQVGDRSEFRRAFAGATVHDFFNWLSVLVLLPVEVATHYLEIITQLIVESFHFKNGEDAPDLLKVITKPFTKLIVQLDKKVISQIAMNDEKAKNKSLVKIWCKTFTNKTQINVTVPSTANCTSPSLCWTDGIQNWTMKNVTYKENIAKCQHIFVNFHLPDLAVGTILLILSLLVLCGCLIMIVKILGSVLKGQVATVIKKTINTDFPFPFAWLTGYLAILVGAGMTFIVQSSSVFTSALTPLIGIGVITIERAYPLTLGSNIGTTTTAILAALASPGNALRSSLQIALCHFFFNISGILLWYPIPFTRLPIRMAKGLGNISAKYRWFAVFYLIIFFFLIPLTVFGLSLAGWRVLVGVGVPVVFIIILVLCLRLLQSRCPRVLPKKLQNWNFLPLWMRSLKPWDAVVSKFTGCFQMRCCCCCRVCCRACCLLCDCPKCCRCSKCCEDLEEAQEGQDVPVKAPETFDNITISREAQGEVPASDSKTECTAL

v16955, palivizumab (anti-RSV) negative control (antibody)
0%: all assays above
